Measurements from publication PMC7901023.

Biological target: FOXA1-ΔHx (UniProt P35582)
Assay: pull-down

- pull-down relative to wild-type FOXA1 (fraction of wild type): 0.33
Substance: H3/H4 tetramers (from UniProt P84233;P62799) (complex)
